Test results from patent publication US7033773B1, “Screening assays for G protein coupled receptor agonists and antagonists” (The General Hospital Corporation, priority 1997, dated 2006).

Assays:
human PTH/PTHrP receptor = molecular target: T1, human PTH/PTHrP receptor (Homo sapiens, UniProt Q03431); test: Cellular phosphate uptake in LLC-PK1 cells expressing human PTHR; assay type: cell-based; parameters: transfected with a full-length human PTH/PTHrP receptor cDNA; expressed in transfected cells; details: HKRK B28 and HKRK B7 cells; peptides 1000 nM, 6 hr
T1 sequence (Q03431 27-593): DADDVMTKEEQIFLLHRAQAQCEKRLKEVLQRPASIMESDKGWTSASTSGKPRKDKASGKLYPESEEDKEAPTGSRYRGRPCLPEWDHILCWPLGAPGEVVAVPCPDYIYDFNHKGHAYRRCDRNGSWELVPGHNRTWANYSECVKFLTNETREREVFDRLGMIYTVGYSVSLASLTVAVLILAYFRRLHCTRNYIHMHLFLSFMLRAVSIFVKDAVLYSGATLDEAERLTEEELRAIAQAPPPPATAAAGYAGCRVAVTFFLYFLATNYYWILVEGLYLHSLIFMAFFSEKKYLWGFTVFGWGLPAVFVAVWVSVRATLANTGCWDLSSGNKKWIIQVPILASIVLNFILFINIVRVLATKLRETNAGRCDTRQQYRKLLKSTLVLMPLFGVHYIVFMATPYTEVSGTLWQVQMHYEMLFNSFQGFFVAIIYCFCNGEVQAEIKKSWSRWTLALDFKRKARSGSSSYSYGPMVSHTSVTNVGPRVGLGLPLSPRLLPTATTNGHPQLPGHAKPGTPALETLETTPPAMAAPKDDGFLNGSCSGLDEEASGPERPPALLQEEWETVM
Procedure: FIG. 8. Regulation of phosphate uptake by PTH in HKRK B7 and HKRK B28 cells. […] Results are expressed as percentage of basal, and each bar represents the mean±SEM of a representative experiment performed in triplicate. Similar results were obtained from at least 5 individual experiments. Cells were seeded into 24-well plates at a density of 2.5×10^5 cells/well and cultured for a further 2 days before study. Twenty four hours before assay, cells were refed with 0.5 ml of DMEM containing 0.1% BSA. The next day, cells were refed with serum-free medium (DMEM+0.1% BSA) containing drugs or peptides, and the incubations were continued at 37° C. under 5% CO2 in air for another 6 hr. Cells then were washed with prewarmed Buffer B without BSA and Na2HPO4 and then were incubated at 37° C. for 5 min in 0.25 ml of the same buffer containing [^32P]orthophosphate (4 uCi/ml) and 0.1 mM Na2HPO4. Phosphate uptake was arrested by adding 1 ml of ice-cold sodium-free “stop buffer” [10 mM HEPES (pH 7.4), 140 mM choline chloride, and 5 mM sodium arsenate], followed by two further washes with same buffer. The drained cell layer then was solubilized in 0.5 ml of Lysis Buffer, and cell-associated radioactivity was determined by Cerenkov counting, as previously described (Guo, J., et al., Endocrinology 136:3884-3891 (1995)).

rat PTHR = molecular target: T2, rat PTHR (Rattus norvegicus, UniProt P25961); test: IP3 production (PLC activation) in LLC-PK1 cells expressing rat PTHR; assay type: cell-based
T2 construct: expressed in transfected cells; host or cells: LLC-PK1 porcine renal epithelial cells (EW5; also EW29, AR-C38, AR-B44)
T2 sequence (P25961 27-591): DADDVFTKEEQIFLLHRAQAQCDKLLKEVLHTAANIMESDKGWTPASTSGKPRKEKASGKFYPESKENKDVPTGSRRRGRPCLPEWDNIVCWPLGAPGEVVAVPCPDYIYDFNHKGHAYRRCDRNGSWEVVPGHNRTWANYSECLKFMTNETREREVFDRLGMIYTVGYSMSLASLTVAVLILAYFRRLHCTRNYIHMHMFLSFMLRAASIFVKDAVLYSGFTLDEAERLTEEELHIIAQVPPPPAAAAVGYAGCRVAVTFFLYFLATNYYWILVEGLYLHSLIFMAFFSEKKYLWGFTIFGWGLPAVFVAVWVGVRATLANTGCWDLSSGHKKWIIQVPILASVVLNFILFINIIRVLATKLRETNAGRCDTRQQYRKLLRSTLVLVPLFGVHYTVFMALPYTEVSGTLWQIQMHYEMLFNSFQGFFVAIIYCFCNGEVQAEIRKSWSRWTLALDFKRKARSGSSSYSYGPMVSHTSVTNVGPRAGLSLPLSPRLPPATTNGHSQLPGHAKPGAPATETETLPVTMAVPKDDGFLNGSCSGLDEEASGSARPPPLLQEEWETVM
Procedure: Cells were seeded into 24-well plates at a density of 2.5×10^5 cells/well and cultured for a further 2 days before study. The cells were labeled at 37° C. for 16 h before assay with 3 uCi/ml of [^3H]myo-inositol in assay medium (serum- and inositol-free DMEM (GIBCO-BRL, Grand Island, N.Y.) supplemented with 0.1% BSA). After washing the cells with prewarmed assay medium containing 30 mM LiCl, they were incubated with 0.25 ml of assay medium containing 30 mM LiCl and stimulators (or vehicle) at 37° C. for various intervals(1-30 min). IP3 formation was arrested by aspiration and immediate addition of 0.5 ml of ice-cold 5% TCA. The acid extracts then were extracted twice with two volumes of water-saturated ether and adjusted to pH 7.4 with concentrated NaOH and Tris base (final concentration=10 mM) prior to chromatography on AG 1×8 anion-exchange columns (Bio-Rad, Richmond, Calif.), as previously described (Guo, J., et al., Endocrinology 136:3884-3891 (1995)). After eluting other fractions (free [^3H]myo-inositol, glycerophosphate inositol, IP1, and IP2), IP3 fractions were collected and their content of radioactivity was determined by liquid scintillation spectrometry (Beckman, model LS 6000IC).
Responses to hPTH(1-34) or hPTH(1-31) (1000 nM) were measured in EW5 cells, which express 320,000 rat PTHRs per cell. Each value is the mean±SEM of a representative experiment performed in triplicate. Similar results were obtained in at least 3 individual experiments. The modest reduction in IP3 formation observed with hPTH(1-31) relative to hPTH(1-34) was confirmed in 3 other LLC-PK1 cell lines that expressed rat PTHRs (i.e. EW29, AR-C38 and AR-B44, which express 190,000, 630,000 and 800,000 PTHRs/cell, respectively), in which maximal IP3 formation after hPTH(1-31) (as % of hPTH(1-34) effect) was 75%, 77% and 64%, respectively.

maximal IP3 formation (as % of hPTH(1-34) effect) (rat PTHR; AR-B44 cells, 800,000 rat PTHRs/cell): 64% | maximal IP3 formation (as % of hPTH(1-34) effect) (rat PTHR; AR-C38 cells, 630,000 rat PTHRs/cell): 77% | maximal IP3 generation relative to that by hPTH(1-34) (rat PTHR; EW5 cells (and 3 other rPTHR-expressing cell lines)): approximately 70% | IP3 Formation (rat PTHR; EW5 cells, 320,000 rat PTHRs per cell, peptide 1000 nM, mean±SEM): 316 ± 35 % of basal | maximal IP3 formation (as % of hPTH(1-34) effect) (rat PTHR; EW29 cells, 190,000 rat PTHRs/cell): 75% | maximal PLC activation as % of the maximal response to hPTH(1-34) (rat PTHR; LLC-PK1 cells that expressed rat PTHRs): 60% | reduction of potency for PLC/PKC activation relative to hPTH(1-34) (rat PTHR; via the rat PTHR): 40%
Substance: hPTH(1-31)
maximal activation of phosphate uptake (in words) (human PTH/PTHrP receptor): comparable maximal activation of phosphate uptake
